Target: human CSF-1R fragment D1-D3 (human, UniProt P07333 20-311)
Assay: SPR
Protocol: The binding of […] anti-CSF-1R antibodies to human CSF-1R fragment D1-D3 (SEQ ID NO:13) was measured as described in Example 10 of WO2011/070024.

B1: emactuzumab (antibody, V domains shown)
VH: QVQLVQSGAEVKKPGASVKVSCKASGYTFTSYDISWVRQAPGQGLEWMGVIWTDGGTNYAQKLQGRVTMTTDTSTSTAYMELRSLRSDDTAVYYCARDQRLYFDVWGQGTTVTVSS
VL: DIQMTQSPSSLSASVGDRVTITCRASEDVNTYVSWYQQKPGKAPKLLIYAASNRYTGVPSRFSGSGSGTDFTLTISSLQPEDFATYYCQQSFSYPTFGQGTKLEIK
notes: also called anti-CSF-1R antibody emactuzumab; <CSF-1R> MAb
binding result: no binding
